Key:
Test in all cases: cell-based or functional assay
[1] = biological target: rhesus monkey Y2 receptor (rhesus monkey) (UniProt Q9GK74)
[2] = biological target: mouse Y2 receptor (mouse) (UniProt P97295)
[3] = biological target: human Y1 receptor (human) (UniProt P25929)
rat Y2 receptor (rat) = rat Y2 receptor (rat) (UniProt Q9ERC0)
Sequence of rat Y2 receptor (rat) (Q9ERC0 entry or part of it): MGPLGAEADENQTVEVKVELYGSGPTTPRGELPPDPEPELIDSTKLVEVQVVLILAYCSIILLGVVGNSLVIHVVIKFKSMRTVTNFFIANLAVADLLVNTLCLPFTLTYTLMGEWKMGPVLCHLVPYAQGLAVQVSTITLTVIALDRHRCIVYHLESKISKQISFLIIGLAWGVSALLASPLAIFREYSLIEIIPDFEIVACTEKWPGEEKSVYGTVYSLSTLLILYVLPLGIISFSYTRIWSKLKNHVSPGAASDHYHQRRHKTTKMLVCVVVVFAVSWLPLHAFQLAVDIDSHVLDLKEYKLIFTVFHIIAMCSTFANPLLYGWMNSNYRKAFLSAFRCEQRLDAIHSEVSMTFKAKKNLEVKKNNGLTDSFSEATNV

Sequence of rhesus monkey Y2 receptor (rhesus monkey) (Q9GK74 whole entry): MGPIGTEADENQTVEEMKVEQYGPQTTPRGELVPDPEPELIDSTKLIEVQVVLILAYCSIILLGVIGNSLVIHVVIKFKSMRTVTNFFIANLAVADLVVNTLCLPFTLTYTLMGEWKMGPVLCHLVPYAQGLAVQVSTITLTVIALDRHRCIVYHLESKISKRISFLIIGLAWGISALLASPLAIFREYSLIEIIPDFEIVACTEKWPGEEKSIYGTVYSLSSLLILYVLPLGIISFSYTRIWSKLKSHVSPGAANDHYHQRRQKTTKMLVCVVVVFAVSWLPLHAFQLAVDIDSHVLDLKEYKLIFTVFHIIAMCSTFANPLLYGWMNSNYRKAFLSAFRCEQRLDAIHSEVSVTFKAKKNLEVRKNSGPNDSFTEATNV
Sequence of human Y1 receptor (human) (P25929 whole entry): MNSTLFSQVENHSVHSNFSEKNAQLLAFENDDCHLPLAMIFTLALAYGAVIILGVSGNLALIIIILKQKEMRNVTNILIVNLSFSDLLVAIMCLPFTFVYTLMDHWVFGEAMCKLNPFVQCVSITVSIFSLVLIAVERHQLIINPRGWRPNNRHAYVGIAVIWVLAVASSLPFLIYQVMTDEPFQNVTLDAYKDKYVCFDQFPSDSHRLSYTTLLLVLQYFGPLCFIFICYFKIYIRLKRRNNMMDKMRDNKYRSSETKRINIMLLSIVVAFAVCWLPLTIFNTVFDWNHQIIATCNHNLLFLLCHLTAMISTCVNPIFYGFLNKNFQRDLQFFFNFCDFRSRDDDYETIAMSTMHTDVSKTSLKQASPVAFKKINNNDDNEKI
Sequence of mouse Y2 receptor (mouse) (P97295 whole entry): as the sequence (Q9ERC0 entry or part of it) above, with L4V, L20P, S23P, P25H, V52I, Q163R, V175I, K247R, T266M, L371P counted along it

Cross-species potency (EC50 nM), cAMP assay [1]: 0.06 nM | Cross-species potency (EC50 nM), cAMP assay [2]: 0.03 nM | Human isoform potency (EC50 nM), cAMP assay [3]: 66.4 nM | Cross-species potency (EC50 nM), cAMP assay (rat Y2 receptor (rat)): 0.5 nM
Substance: PYY3-36 (from UniProt P10082 31-64) (peptide)
